This is an account of results in IntAct's records for PubMed 31515488.

B1: Keratin, type I cytoskeletal 40 (Homo sapiens), Q6A162 (parent)
chain: MTSDCSSTHCSPESCGTASGCAPASSCSVETACLPGTCATSRCQTPSFLSRSRGLTGCLLPCYFTGSCNSPCLVGNCAWCEDGVFTSNEKETMQFLNDRLASYLEKVRSLEETNAELESRIQEQCEQDIPMVCPDYQRYFNTIEDLQQKILCTKAENSRLAVQLDNCKLATDDFKSKYESELSLRQLLEADISSLHGILEELTLCKSDLEAHVESLKEDLLCLKKNHEEEVNLLREQLGDRLSVELDTAPTLDLNRVLDEMRCQCETVLANNRREAEEWLAVQTEELNQQQLSSAEQLQGCQMEILELKRTASALEIELQAQQSLTESLECTVAETEAQYSSQLAQIQCLIDNLENQLAEIRCDLERQNQEYQVLLDVKARLEGEINTYWGLLDSEDSRLSCSPCSTTCTSSNTCEPCSAYVICTVENCCL
B2: SR-related and CTD-associated factor 8 (Homo sapiens), Q9UPN6 (parent)
chain: MEAVKTFNSELYSLNDYKPPISKAKMTQITKAAIKAIKFYKHVVQSVEKFIQKCKPEYKVPGLYVIDSIVRQSRHQFGQEKDVFAPRFSNNIISTFQNLYRCPGDDKSKIVRVLNLWQKNNVFKSEIIQPLLDMAAGIPPPVVTPVLASTTTAMSNTPGTPVTPVTPANVVQGLPDPWVSQITNTDTLAAVAQILQSPQGQQLQQLIQTLQIQQQKPQPSILQALDAGLVVQLQALTAQLTAAAAAANTLTPLEQGVSFNKKLMDRFDFGEDSEHSEEPKKEIPASQLSHVSESVNNSIFHQIAEQLQQQNLEHLRQQLLEQQQPQKATPQDSQEGTFGSEHSASPSQGSSQQHFLEPEVNLDDSIDIQQQDMDIDEGQDGVEEEVFEQEAKKVAVRSRSRTHSRSRSRSPRKRRSRSRSGSRKRKHRKRSRSRSRERKRKSSRSYSSERRAREREKERQKKGLPPIRSKTLSVCSTTLWVGQVDKKATQQDLTNLFEEFGQIESINMIPPRGCAYVCMVHRQDAFRALQKLSSGSYKIGSKVIKIAWALNKGVKTEYKQFWDVDLGVTYIPWEKVKVDDLEGFAEGGMIDQETVNTEWETVKSSEPVKETVQTTQSPTPVEKETVVTTQAEVFPPPVAMLQIPVAPAVPTVSLVPPAFPVSMPVPPPGFSPIPPPPFLRASFNPSQPPPGFMPPPVPPPVVPPPTIPPVVPTSLVQPSLSMTPETVKDVGFGSLVIPGGSVASNLATSALPAGNVFNAPTKQAEPEEKVPHLIDHQISSGENTRSVIPNDISSNAAILGGQPPNVTSNSGILGVQRPNVSSNSEILGVRPSNVSSSSGIIAAQPPNILNNSGILGIQPPSVSNSSGLLGVLPPNIPNNSGLVGVQPPNVPNTPGLLGTQPPAGPQNLPPLSIPNQRMPTMPMLDIRPGLIPQAPGPRFPLIQPGIPPQRGIPPPSVLDSALHPPPRGPFPPGDIFSQPERPFLAPGRQSVDNVTNPEKRIPLGNDNIQQEGDRDYRFPPIETRESISRPPPVDVRDVVGRPIDPREGPGRPPLDGRDHFGRPPVDIRENLVRPGIDHLGRRDHFGFNPEKPWGHRGDFDEREHRVLPVYGGPKGLHEERGRFRSGNYRFDPRSGPWNRGFGQEVHRDFDDRRRPWERQRDRDDRDFDFCREMNGNRLGRDRIQNTWVPPPHARVFDYFEGATSQRKGDNVPQVNGENTERHAQPPPIPVQNDPELYEKLTSSNEINKEKSDTVADIESEPVVESTETEGT
partner: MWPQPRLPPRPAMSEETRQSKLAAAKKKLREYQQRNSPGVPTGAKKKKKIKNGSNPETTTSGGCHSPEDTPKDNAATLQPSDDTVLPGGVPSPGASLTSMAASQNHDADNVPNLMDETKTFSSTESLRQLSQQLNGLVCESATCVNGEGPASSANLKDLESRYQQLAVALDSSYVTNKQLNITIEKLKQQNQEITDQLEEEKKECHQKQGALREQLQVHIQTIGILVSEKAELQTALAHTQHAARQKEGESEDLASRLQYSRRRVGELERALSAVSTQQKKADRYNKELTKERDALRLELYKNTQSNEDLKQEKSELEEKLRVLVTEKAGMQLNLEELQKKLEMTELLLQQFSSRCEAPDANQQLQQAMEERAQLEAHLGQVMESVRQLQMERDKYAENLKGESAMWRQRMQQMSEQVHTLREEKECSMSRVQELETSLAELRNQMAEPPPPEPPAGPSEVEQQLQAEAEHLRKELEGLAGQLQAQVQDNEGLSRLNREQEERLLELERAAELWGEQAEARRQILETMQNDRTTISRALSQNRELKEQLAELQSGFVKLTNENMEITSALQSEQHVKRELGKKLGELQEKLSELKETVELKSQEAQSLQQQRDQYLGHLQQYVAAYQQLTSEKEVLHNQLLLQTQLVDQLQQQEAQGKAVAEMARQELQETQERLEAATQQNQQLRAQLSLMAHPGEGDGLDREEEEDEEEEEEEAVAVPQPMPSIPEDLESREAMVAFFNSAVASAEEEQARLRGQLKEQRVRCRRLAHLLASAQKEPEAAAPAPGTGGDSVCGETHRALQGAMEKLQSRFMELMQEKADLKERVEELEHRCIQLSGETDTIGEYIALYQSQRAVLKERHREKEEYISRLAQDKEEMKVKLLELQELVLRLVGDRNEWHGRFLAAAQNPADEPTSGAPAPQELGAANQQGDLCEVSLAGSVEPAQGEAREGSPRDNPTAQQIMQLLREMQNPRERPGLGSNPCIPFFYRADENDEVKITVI
B3: Zinc finger protein 581 (Homo sapiens), Q9P0T4 (parent)
chain: MLVLPSPCPQPLAFSSVETMEGPPRRTCRSPEPGPSSSIGSPQASSPPRPNHYLLIDTQGVPYTVLVDEESQREPGASGAPGQKKCYSCPVCSRVFEYMSYLQRHSITHSEVKPFECDICGKAFKRASHLARHHSIHLAGGGRPHGCPLCPRRFRDAGELAQHSRVHSGERPFQCPHCPRRFMEQNTLQKHTRWKHP
B4: Probable thioesterase PNKD (Homo sapiens), Q8N490 (parent)
chain: MAAVVAATALKGRGARNARVLRGILAGATANKASHNRTRALQSHSSPEGKEEPEPLSPELEYIPRKRGKNPMKAVGLAWYSLYTRTWLGYLFYRQQLRRARNRYPKGHSKTQPRLFNGVKVLPIPVLSDNYSYLIIDTQAQLAVAVDPSDPRAVQASIEKEGVTLVAILCTHKHWDHSGGNRDLSRRHRDCRVYGSPQDGIPYLTHPLCHQDVVSVGRLQIRALATPGHTQGHLVYLLDGEPYKGPSCLFSGDLLFLSGCGRTFEGNAETMLSSLDTVLGLGDDTLLWPGHEYAEENLGFAGVVEPENLARERKMQWVQRQRLERKGTCPSTLGEERSYNPFLRTHCLALQEALGPGPGPTGDDDYSRAQLLEELRRLKDMHKSK
partner: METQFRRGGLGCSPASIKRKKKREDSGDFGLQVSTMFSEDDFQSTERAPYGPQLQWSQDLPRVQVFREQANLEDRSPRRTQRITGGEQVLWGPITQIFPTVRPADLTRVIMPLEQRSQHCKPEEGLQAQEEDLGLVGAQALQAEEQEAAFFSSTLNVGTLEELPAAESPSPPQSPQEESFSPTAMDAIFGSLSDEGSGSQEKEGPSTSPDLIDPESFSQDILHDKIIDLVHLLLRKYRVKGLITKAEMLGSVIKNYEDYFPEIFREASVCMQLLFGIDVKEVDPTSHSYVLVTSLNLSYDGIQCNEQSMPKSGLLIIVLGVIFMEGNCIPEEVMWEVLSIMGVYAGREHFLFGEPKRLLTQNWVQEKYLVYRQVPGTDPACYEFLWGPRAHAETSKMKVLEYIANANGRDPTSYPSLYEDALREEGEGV

Variants of B1 are the subject of the first assay. The conditions noted are these: with wt1_human WT1, P19544.
wt1_human WT1, P19544, sequence (P19544 whole entry): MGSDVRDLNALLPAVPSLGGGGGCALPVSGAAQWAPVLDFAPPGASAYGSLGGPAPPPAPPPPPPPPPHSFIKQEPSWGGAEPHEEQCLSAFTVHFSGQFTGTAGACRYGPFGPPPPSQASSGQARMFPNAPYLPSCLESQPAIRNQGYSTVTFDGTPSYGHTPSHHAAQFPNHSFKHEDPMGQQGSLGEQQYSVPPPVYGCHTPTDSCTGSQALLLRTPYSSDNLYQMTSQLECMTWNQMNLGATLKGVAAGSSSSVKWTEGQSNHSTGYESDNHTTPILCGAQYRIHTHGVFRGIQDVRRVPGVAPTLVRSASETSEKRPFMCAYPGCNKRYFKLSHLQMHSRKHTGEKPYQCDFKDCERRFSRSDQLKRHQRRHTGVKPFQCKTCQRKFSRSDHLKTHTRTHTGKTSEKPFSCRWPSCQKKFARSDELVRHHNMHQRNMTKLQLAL
As to S102N, the “effect of a mutation on the interaction” value is given as “with no effect”.
Still for that read-out and setting: in the case of A115T it was “with no effect”.
The same measure, in the same setting: in the case of E286D it was “with no effect”.

The variants in another assay derive from B1. The conditions noted are these: with k2c4_human KRT4, P19013.
k2c4_human KRT4, P19013, sequence (P19013 whole entry): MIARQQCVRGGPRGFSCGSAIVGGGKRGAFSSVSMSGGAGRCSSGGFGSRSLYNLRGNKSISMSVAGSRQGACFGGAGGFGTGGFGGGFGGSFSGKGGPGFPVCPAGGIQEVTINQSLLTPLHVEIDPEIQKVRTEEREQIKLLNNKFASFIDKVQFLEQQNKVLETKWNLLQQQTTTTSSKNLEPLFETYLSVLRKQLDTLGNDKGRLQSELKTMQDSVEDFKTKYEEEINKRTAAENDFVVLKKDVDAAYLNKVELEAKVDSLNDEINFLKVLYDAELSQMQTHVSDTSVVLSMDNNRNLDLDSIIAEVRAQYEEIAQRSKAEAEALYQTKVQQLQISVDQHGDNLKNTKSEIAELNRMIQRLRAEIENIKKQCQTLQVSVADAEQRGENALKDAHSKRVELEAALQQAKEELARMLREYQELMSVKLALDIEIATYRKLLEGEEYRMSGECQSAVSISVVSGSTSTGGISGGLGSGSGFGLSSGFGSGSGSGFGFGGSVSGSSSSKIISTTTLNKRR
Take S102N: the “effect of a mutation on the interaction” value was “with no effect”.
Consider A115T, for which the “effect of a mutation on the interaction” value is given as “with no effect”.
On the same count and under the same terms, the entry for E286D is “with no effect”.

Variants of B1 are the subject of another assay. The conditions noted are these: with mta1_human MTA1, Q13330.
mta1_human MTA1, Q13330, sequence (Q13330 whole entry): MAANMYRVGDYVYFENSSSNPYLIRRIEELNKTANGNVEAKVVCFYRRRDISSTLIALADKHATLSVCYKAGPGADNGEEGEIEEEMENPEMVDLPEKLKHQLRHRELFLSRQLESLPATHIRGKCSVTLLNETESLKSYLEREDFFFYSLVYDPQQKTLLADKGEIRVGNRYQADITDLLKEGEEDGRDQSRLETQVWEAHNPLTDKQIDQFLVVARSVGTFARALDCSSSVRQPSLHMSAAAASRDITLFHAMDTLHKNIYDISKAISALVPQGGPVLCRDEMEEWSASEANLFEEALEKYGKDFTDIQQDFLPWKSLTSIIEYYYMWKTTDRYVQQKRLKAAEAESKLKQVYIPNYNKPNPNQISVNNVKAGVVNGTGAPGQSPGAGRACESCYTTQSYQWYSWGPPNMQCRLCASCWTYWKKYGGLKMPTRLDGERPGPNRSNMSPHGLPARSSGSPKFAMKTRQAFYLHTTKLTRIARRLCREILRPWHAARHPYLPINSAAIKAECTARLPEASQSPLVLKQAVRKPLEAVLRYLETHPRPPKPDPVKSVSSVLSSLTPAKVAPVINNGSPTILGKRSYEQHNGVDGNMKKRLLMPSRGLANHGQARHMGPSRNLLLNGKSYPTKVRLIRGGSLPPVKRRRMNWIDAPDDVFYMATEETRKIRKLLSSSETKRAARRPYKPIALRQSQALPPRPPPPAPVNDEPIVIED
For S102N, the “effect of a mutation on the interaction” value is “with no effect”.
Still for that read-out and setting: the entry for A115T is “with no effect”; for E286D it is “with no effect”.

A further assay covers variants of B1. The following applies: with prs8_human PSMC5, P62195.
prs8_human PSMC5, P62195, sequence (P62195 whole entry): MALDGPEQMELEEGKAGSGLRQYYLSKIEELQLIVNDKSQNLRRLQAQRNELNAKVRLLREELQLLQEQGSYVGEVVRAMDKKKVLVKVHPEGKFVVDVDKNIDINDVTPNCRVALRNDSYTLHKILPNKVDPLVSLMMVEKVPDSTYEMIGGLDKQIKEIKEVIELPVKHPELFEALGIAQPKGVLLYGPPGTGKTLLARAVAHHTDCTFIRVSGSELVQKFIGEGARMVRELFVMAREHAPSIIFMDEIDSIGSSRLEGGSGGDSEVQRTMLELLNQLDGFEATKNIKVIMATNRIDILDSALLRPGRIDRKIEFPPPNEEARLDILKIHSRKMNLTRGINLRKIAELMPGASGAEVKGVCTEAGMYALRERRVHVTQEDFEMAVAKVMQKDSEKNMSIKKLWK
Take S102N: the “effect of a mutation on the interaction” value is “with no effect”.
On the same count and under the same terms, in the case of A115T it was “with no effect”; in that of E286D, “with no effect”.

A further assay covers variants of B1. The conditions noted are these: with snai1_human SNAI1, O95863.
snai1_human SNAI1, O95863, sequence (O95863 whole entry): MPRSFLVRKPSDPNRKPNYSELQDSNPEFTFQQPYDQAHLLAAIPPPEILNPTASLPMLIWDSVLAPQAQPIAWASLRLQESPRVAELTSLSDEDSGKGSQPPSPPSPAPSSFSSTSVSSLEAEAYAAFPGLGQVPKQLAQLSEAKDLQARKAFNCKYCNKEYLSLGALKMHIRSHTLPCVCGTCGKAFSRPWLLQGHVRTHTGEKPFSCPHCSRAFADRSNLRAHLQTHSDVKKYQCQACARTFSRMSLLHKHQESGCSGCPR
In the case of S102N, the “effect of a mutation on the interaction” value is reported as “with no effect”.
Consider A115T, for which the “effect of a mutation on the interaction” value is “with no effect”.
On to E286D, for which the “effect of a mutation on the interaction” value is “with no effect”.

In a further assay the parent is B2. The conditions noted are these: with goga2_human GOLGA2, Q08379.
For the variant M1173V, the “effect of a mutation on the interaction” value is “with no effect”.

Another assay covers variants of B3. The following applies: with cc136_human CCDC136, Q96JN2.
cc136_human CCDC136, Q96JN2, sequence (Q96JN2 whole entry): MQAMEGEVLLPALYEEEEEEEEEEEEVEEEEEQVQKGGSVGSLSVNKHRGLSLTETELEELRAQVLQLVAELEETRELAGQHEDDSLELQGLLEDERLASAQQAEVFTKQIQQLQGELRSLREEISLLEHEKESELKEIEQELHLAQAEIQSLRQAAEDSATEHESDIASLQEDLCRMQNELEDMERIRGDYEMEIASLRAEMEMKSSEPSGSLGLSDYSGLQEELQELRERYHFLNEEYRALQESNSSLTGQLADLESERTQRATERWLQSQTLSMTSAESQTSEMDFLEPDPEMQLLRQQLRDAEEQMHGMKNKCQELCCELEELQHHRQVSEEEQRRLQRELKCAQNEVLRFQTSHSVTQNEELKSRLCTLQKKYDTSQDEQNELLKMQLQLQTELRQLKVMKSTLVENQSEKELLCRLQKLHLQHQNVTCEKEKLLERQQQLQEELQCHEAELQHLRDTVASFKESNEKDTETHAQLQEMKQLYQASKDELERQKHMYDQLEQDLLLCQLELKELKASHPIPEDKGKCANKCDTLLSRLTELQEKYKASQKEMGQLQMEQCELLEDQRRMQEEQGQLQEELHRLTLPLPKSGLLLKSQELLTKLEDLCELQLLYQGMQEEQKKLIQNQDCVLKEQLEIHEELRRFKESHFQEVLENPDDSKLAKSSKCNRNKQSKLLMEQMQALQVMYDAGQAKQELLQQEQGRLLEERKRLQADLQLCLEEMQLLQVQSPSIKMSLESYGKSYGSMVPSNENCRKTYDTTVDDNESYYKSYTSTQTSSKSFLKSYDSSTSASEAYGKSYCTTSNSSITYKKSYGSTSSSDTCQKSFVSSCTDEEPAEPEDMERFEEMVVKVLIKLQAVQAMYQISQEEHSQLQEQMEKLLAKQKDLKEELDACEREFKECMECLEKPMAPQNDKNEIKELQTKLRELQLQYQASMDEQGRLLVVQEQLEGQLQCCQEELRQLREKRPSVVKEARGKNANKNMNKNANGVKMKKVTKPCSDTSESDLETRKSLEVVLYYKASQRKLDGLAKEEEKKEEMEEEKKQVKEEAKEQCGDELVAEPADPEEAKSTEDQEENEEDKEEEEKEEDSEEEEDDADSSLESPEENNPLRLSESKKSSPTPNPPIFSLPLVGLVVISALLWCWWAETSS
Turning to R143W, the “effect of a mutation on the interaction” value was “with no effect”.
The same measure, in the same setting: in the case of E32A it was “with no effect”.

In another assay the parent is B3. The conditions noted are these: with mtus2_human MTUS2, Q5JR59.
mtus2_human MTUS2, Q5JR59, sequence (Q5JR59 whole entry): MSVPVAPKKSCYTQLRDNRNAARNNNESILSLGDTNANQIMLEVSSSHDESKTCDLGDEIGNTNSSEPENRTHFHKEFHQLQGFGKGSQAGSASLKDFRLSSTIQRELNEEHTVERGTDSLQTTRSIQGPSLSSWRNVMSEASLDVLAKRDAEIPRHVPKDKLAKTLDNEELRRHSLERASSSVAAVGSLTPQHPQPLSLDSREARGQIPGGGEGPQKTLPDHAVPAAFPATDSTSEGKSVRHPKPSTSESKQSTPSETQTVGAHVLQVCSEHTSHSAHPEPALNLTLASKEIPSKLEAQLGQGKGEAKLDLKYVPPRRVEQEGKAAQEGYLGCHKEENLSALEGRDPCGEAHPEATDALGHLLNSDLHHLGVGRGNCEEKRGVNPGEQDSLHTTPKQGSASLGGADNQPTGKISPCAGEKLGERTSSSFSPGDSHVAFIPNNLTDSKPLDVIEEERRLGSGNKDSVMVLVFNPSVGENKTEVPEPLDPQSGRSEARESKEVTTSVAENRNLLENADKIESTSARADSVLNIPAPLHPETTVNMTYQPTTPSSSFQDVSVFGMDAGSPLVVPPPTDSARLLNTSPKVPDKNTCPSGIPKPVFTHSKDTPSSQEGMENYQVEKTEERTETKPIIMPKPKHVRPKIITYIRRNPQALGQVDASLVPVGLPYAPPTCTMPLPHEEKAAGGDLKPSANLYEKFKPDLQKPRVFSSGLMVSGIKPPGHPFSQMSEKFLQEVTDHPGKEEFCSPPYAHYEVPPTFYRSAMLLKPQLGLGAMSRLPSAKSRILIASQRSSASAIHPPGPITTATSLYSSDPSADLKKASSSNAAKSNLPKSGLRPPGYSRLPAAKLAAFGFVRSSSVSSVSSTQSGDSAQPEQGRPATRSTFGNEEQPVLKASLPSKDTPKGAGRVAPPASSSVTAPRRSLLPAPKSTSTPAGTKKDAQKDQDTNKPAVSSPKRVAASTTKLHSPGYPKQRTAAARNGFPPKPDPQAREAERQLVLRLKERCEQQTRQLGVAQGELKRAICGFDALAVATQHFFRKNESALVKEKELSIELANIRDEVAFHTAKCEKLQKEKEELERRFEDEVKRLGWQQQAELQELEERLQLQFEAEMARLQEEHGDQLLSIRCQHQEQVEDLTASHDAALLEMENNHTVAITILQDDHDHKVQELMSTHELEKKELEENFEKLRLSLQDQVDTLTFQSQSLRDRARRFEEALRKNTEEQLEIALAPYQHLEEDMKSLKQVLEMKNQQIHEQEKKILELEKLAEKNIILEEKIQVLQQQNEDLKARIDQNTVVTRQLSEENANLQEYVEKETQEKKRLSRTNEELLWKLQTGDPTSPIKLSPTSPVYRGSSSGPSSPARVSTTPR
With R143W, the “effect of a mutation on the interaction” value is “with no effect”.
In the case of E32A, the “effect of a mutation on the interaction” value is “with no effect”.

Variants of B3 are the subject of another assay. The following applies: with tri23_human TRIM23, P36406.
For the variant R143W, the “effect of a mutation on the interaction” value is given as “with no effect”.
As to E32A, the “effect of a mutation on the interaction” value is on record as “with no effect”.

In another assay the parent is B4. The conditions noted are these: with magab_human MAGEA11, P43364.
Take R377Q: the “effect of a mutation on the interaction” value is “with no effect”.
